Experimental data: the nanobody polyreactivity screen of Harvey et al. (2022)

Assay: yeast display, Sf9 membrane polyspecificity reagent, FACS + sequencing; frameworks hold sequencing errors
Outline: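 A synthetic nanobody library was expressed on Saccharomyces cerevisiae BJ5465 by galactose induction for 36–48 hours. The library was stained for 1 hour at 4 °C with 10% biotinylated, detergent-solubilized Sf9 membrane reagent and enriched with streptavidin microbeads before FACS. Low and high (top ~1%) gates were set on anti-HA fluorescence for expression and streptavidin fluorescence for reagent binding, and each polyreactivity label reflects the gate of origin.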

Row | Sequence | polyreactivity (PSR sort gate)
1 | QVQLVESGGGLVQAGGSLRLSCAASGSTLSAYVMGWYRQAPGKERELVAAITRGGNTYYADSVKGRFTISRDNAKNTVYLQMNSLKPEDTAVYYCAARTYVSYGYYTRNYWGQGTQVTVSS | high polyreactivity
2 | QVQLVESGGGLVQAGGSLRLSCAASGGIFRVYAMGWYRQAPGNERELVAAINGRGTSTYYADSVKGRFTISRDNAKNTVYLQMNSLKPEDTAVYYCAASGQYHYDYWGQGTQVTVSS | high polyreactivity
3 | QVQLVESGGGLVQAGGSLRLSCAASGRNFTRNAMGWYRQAPGKEREFVAAISYRGGSTYYADSVKGRFTISRDNAKNTVYLQMNSLKPEDSAVYYCAKRIYPYYGELYWGQGTQVTVSS | high polyreactivity
4 | QVQLVESGGGLVQAGGSLRLSCAASGRIFVKYAMGWYRQAPGKERELVARITRGGRTNYADSVKGRFTISRDNAKNTVYLQMNSLKPEDTAVYYCNAGWGMRLSWLGNYWGQGTQVTVSS | high polyreactivity
5 | QVQLVESGGGLVQAGGSLRLSCAASGSIFAWYAMGWYRPAPGKEWELVAVITRGGSTNYADSLKGRFTISRDNAKNTVYLQMNSLKPEDTAVKYCAAGSYYSWYPFDYWGQGTQVTVSS | low polyreactivity
6 | QVQLVESGGGLVQAGGSLRLSSAASRSTFTVYAMGWYRQAPGKETELVAAITGGGRTYYADSVKGRFTISRDNAKNTVYLQMNSLKPEDTAVYYCAKKYSWRYARVYSLHFDYWGQGTQVTVSS | high polyreactivity
7 | QVQLVESGGGLVQAGGSLRLSCAASGYTLYQYAMGWYRPAPVKERELVAAISRRGGSTYYADSVKGRFTISRDNAKNTVYLLMNSLKPEDTAVYYCNNANLYRFWEMDYWGQGTQVSVSS | high polyreactivity
8 | QVQLVESGGGLVQAGGSLRLSCAASGFTFYRYTMGWYRQAPGKERELVAAISRRGGRTYYADSVKGRFTISRDYAKNSVYLQMNSLKPEDTAVYYCAADSAAYVFGEAYDYWGKGTQVTVSS | high polyreactivity
9 | QVQLVESGGGLVQAGGSRRLSCAASGSTFRRYAMGWSRQAPWKERELVAAISGRGGSTSYADSVKGRFTISRDNAKNTVYLQMNSLKPEDTAVYYCNARGYPSRFKYYYWGEGTQVTVSS | high polyreactivity
10 | QVQLVESGGGIVQAGGSLRLSCAASGSIFRRNAMGWYRQSPGKEMEMVASISRGGSTYYADSVKGRFTISRDNAKNTVYLQMNSLKPEDTSVYYCNVVPRWLSWVPTTRRIGDDDYWGQGTQVTVSS | high polyreactivity
11 | QVQLVESGGGLVQAGGSLRLSCAASGSTFERYVMGWYSQAPGKARELVADINSGGSTNYADSVKGRFTISRDNAKNTVYLQMNSLKPEDTAVYYCAAKRRYYGPWSRMGYDYWGQGTQVTVSS | low polyreactivity
12 | QVQLVESGGGLFQAGGNLRLSCAASGRTFYPNAMGWYRQAPGKERELVAGIRSSGDSTYYADSVKVRFTISRDNAKNTVYFQMNSLKPEDTAVYYCNRDLTPSYDYWGQGSQVTVSS | low polyreactivity
13 | QVQLVESGGGLVQAGGSHRLSCAASGSIFGVYVMGWYRQAPGKERELVAAITRGASTNYADSVKGRFTISRDNAKNSVYLQMNSLKPEDTAVYYCAARQVSVSGHQYGYWGQGSQVTVSS | low polyreactivity
14 | QFQLVESGGGLVQAGGSLRLSCASSGSIIGIYAMGWYRQAPGKERELVAAISWSGGSTYYADSVKGRFTISRDNAKNTVYLQMNSLKPEDTAVYYCAARGHYQYYWGQGTQVTVSS | high polyreactivity
15 | QVQHVESGGGLVQAGGSLLLSCAASGSIFEINAMGWYRQAPGKERELVADIRRGDSTNYADSVKGRFTNSRDNAKNTVYLQMNSLKPEDTAVYYCAARWRRSKYGVYPQRPYDYWGQGTQVTVSS | high polyreactivity
16 | QVQLVESGGGLVQAGGSLRLSCAASGRIFYRYAMGWYRQAPGKERELVAAISSGGSTYADSVKGRFTISRDNAKNTVYLQMNSLKPEDTAVYFCAARLYTYPKGKYWGQGTQVTVSS | high polyreactivity
17 | QVQLQESGGGLVQAGGSLLSCAASGTISWVDEMGWYRQAPGNERELVAGIAGGGNTNYADSVKGRFTISRDNAKNTVYLKMNSLDTAVYYCAVVGFGRGTHIYWGQGTQVTVSS | high polyreactivity
18 | QVQLVESGGGLVQAGGSLRLSCAASGSTFLYNAMGWYRQAPGKERELVAAISWSGGSTYYADSVKGRFTISRDNAKNTVYLQMNSLKPEDTAVYYCNALSVPDYDYWGQGTQVTVSS | high polyreactivity
19 | QVQLVESGGGLVQAGGSLRLSCAASGFTIAYYAMGWYRQAPGKERELVAAITTSGSTYYADSVKGRFTISRDNAQNTVYLQMNSLKPEDTAVYYCAVSIWGWFASGFDYWGQGTQVTVSS | high polyreactivity
20 | QVQLVESGGGLVQAGGSLRLSCAASGSTFYRYAMGWYRQAPGKERELVASLTGSGGRTYYADSVKGRFTISRDNAKNTVYLQMNSLKPEDTAVYYCAARLYVRSVIGNAIVKYDYWGQGTQVTVSS | high polyreactivity
21 | QVQLVESGGGLVQAGGSLRLSCAASGSIFWSYAMGWYRQAPGKERELVADSVKGRFTISRDNAKNTVYLQMNSLKPEDTAVYYCAADSPSAPVYLYDYWGQGTQVTVSS | low polyreactivity
22 | QVQLVESGGGLVQAGGSLRLSCAASGRTFVPYAMGWYRQAHGKERELVAAIDKSDGSTYYADSVKGRFTISRDNAKNTVYLKMNSLKPEDSAVYFCNAEGYTYRYYTIYNYCGQGTQVTVSS | high polyreactivity

Row | Sequence | polyreactivity (PSR sort gate)
23 | QVHLVESGGGLVQAGGSLRLSCAASGRTFRYYAMGWYRPAPGKERELVAAISSSGDRTYYADSVKGRFTISRDNAKNTVYLQMNSLKPEDTSVYYCAADRGARGDYYWGQGTQVTVSS | high polyreactivity
24 | QVQLVESGGGIVQAGGSLRLSCAASGITFPLYVMGWYRQAPGKERELVAAISASGGSTYADSVKGRFTISRDNAKNTVYLQMNSLKPEDTAVYYCNADVYVGYDYDYWGQGTQVTVSS | low polyreactivity
25 | QVQLVESGGGLVQAGGTLRLSCAPSGYTFVYNAMGWYRQAPGKEREFVAAISWSGTSTRYADSVKGRFTISRDNAKNTVYLQMNSLKPEDTAVYYCAARRRSAQSGSYNHWGQGTQVTVST | high polyreactivity
26 | QVQLVESGGGLVQAGGSLRLSCAASGSTFFANAMGWFRQAPGKAREFVAVITWGGSTYYADSVKGRFTISRDNAKNSVYLQMNSLKPEDTAVYYCNADYQPPGILYHWWRYYRGDYWGQGTQVTVSS | low polyreactivity
27 | QVQLVETGGGLVQAGGSLRLSCAASGSTFWYNAMGWYRQAPGKESELVAAISRSGATTYYADSVKGRFTISRDNAKNTVYLQMNSLKPEDTAVYYCNKVRQYRYRGYTFDYWGQGTQVSVSS | low polyreactivity
28 | QVQLVESGGGLVQAGGSLRLSCAASGSIFRAYAMGWYRQAPGKERELVATIRKSGGSTYYADSVKGRFTISRDNAKNTVYLQMNSLKPEDTAVYYCAARTIRYVNFYYWGQGTQVTVSS | high polyreactivity
29 | QVKLVESGGGLVQAGGSLRLSCAASGSIFWSYAMGWYRQAPGKEREFVPSITGSGGTTTYADSVKGRFTISLDNAKNTVYVQMNSLKPEDTAVYYCNARLHGWYHVYYIYDYWGQGTQVTVSS | low polyreactivity
30 | QVQLVESGGGLVQAGGSLRLSCAASGRIFGKYVMVWYRQEPGKERELVAGISWSAGSTYYADSVKGRFTISRDTAKNTVYLQMNSLKPEDSAVYSCAAGLEGGYDYWGQGTEVTVSS | low polyreactivity
31 | QVQLVESGGGLVQAGGSLRLSCAASGLTFSVYTMGWYRQAPGKERELVAAITTSGGRTYYADSVKGRFTISRDNAKNTVYLQMNSLKPVDPAVYYCAAVRTGDTTGTMGYWGQGTQVTVSS | high polyreactivity
32 | QVQLVESGGGLVQAGGSLRLSCAASGSISDSYAMGWYRPAPGKERELVAAITSGDSTYYADSVKGRFTISRDNAKNTVYLQMNSLKPEDTAVYYCAKRVSRVRGYGFTDWSEYDYWGQGTQVTVSS | low polyreactivity
33 | QVQLVESGGGLVQAVGSLRLSCAASGRIFRYNAMGWYRQAPVKERELVASITSAGSTNYADSVKGRFTISRDNAKNTVYLQMNSLKPEDTAVYYCAARAQSPPYGYWGQGTQVTVSS | high polyreactivity
34 | QVQLVETGGGLVQAGGSLRLSCSASRLTFVYYTMGWYRQAPGKERELVAAITSSGGSTYYADSLKGRFTISRDNAKNTVYLQMNSLKPEDTAVSYCNAYWTYEFPSYDYWGPGTQVTVSS | low polyreactivity
35 | QVQLVESRGGLVQAGGTLRLSCAPSGLTSYGNTRGWDIPAPGKERELVAAISKRGTSTYYADSVKGRFTISRDNAMNTVYLQMNSLKPEDTAVYYCAAAYRGREVEYISWGQGTQVTVSS | high polyreactivity
36 | QVQLVESGGGLVQAGGSLRLSCAAYGSIFEGNPMGWYRQAPGKERELVASISGDGSTNYADSVKGRFTISRDNAKNTVYLQMNSLKPEDTAVYYCNADTISEPGFHMDYWGQGTQVTVSS | low polyreactivity
37 | QVQLVESGGGLVQAGGSLRLSCAASGRTFYPNTMGWYRQAPGKERELVATITRSGGNTYADSVKGRFTISRDNAKNTVYLQMNSLKPEDTAVYYCNADQRRSYWLVSQRYDYWGQGTQVTVSS | low polyreactivity
38 | QVQLVETGGGLVQAGGSLRLSCAASGFIFYDYAMGWYRQSPGKERELVASISWSSGSTYYADSVKGRFTISRDNAKNTVYLQMNSLKPEDTAVYYCAADGYPLQLYNYWGQGTQVSVSS | low polyreactivity
39 | QVQLVESGGGLVQAGGSLRLSCAASGSIIGRYTMGWYRQAPGKERELVAAINRSGGSTSYADSVKGRFTISRDNAKNTVYLQMNSLKPEDTAVYYCNRARSVPQFYGTYGFGYDYWGQGTQVTVSS | low polyreactivity
40 | QVQLVESGGGLVRAGGSLRLSCAASGSTFRQYAMGWYRQAPGKERDLVAAINWSGSSTYYADSVKGRFTISRDNAKNTVYLQMNSLKPEATAVYYCAARRVLATFQHSNSHYYWGQGTQVTVSS | high polyreactivity
41 | QVQLVESGGGLVQAGGSLRLSCAASGIIFVENAMGWYRQAPGKERDLVASGDSTYADSVKGRFTIARDNAKNTVYLQMNSLKPEDNAVYYCNTDGYPRLYIYDYWGQGTQVTVSS | low polyreactivity
42 | QVQLVESGGGLVQAGGSLRLSCAASGRTFYYNAMGWYRQAHGKERQLVADINWSGVRTYYADSVKGRFTISRDNAKNTVYLQMNSLKPEDTAVYYCAARVGPYSLAVDGFKHGYWGQGTQVTVSS | low polyreactivity
43 | QVQLVESGGGLVQAGGSLRLSCAASGSTFPRYAMGWYRQAPGKEREFVAAISRRGGSTYYADSVKGRFTISRDNAKNTVYLQMNSLKPEDTAVYYCAKYLPTRVWGTGRFDYWGQGTQVTVSS | high polyreactivity
